In PMC2956063:
Where no end group is shown, it is not given here.

Columns and labels:
[1] = biological target: normal recombinant fibrinogen (UniProt P02671); assay: plasmin protection assay
[2] = biological target: recombinant γN308K fibrinogen (UniProt P02671); assay: plasmin protection assay

**Q.** How did the GPRP concentration of full protection [1] turn out when GPRP-NH2 [GPRP-amide] was run?
**A.** Its GPRP concentration of full protection is 5 mM.

**Q.** What about the GPRP concentration at which fragment D1 was readily evident [2] of the same binder?
**A.** Its GPRP concentration at which fragment D1 was readily evident is 0.5 mM.

**Q.** And the GPRP concentration of full protection [2]?
**A.** The GPRP concentration of full protection was > 20 mM.

**Q.** And the fold weaker than normal fibrinogen [2]?
**A.** The fold weaker than normal fibrinogen was 10 fold.
